Laboratory results as given in publication PMC8945615.

Target: soluble human fibrin (human) (UniProt P02679)
Test: SPR

UniProt P02679, sequence (P02679 whole entry, looked up, tested part not stated): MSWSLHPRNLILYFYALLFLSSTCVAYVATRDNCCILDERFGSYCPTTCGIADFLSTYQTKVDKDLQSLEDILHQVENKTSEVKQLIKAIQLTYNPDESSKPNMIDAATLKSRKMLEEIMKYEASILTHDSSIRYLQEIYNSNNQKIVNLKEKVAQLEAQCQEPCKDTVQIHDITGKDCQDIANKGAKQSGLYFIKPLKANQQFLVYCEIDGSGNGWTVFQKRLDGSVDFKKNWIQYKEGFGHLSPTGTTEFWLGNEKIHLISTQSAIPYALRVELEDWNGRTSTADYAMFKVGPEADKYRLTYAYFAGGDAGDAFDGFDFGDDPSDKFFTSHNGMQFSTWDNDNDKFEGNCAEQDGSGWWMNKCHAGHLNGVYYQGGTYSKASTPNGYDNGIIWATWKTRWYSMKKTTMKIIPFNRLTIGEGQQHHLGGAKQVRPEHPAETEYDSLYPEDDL

Question: How did the KD2 (heterogeneous ligand model) turn out when “full-length, purified αIIbβ3 (from UniProt P08514 32-1039; P05106 27-788) (receptor)” was run?
Answer: Its KD2 (heterogeneous ligand model) is 3.79e-07.

Question: What about the KD2 (heterogeneous ligand model, primed with PT25-2) of the same substance?
Answer: The KD2 (heterogeneous ligand model, primed with PT25-2) was 1.37e-07.

Question: What about the Kd1 (heterogeneous ligand model) of the same substance?
Answer: Its Kd1 (heterogeneous ligand model) is 1.47e-07.

Question: What about the Kd1 (heterogeneous ligand model, primed with PT25-2) of the same substance?
Answer: Its Kd1 (heterogeneous ligand model, primed with PT25-2) is 4.78e-08.

Question: What about the fold increase of ka1 on priming with PT25-2 (against unprimed αIIbβ3) of the same substance?
Answer: Its fold increase of ka1 on priming with PT25-2 (against unprimed αIIbβ3) is 3 fold.

Question: And the ka1 (heterogeneous ligand model)?
Answer: Its ka1 (heterogeneous ligand model) is 13400.

Question: And the kd1 (heterogeneous ligand model)?
Answer: Its kd1 (heterogeneous ligand model) is 0.00196.
